Measured values from patent publication US20100297606A1 (KAGOSHIMA UNIVERSITY, published 2010).
Positions of bridges follow the written chain, without caps; N, C: chain ends. No end group written: not given here. *: point of attachment. Biotin = O=C1N[C@H]2[C@H](CS[C@H]2CCCCC(=O)*)N1

How the values were obtained:
[1] = biological target: T1, bovine serum albumin (bovine, UniProt P02769 25-607); assay: ELISA on coated protein; biotinylated peptide premixed 4:1 with SA-AP; absorbance
T1 construct: Control protein; also called BSA
T1 sequence (P02769 25-607 limits assumed): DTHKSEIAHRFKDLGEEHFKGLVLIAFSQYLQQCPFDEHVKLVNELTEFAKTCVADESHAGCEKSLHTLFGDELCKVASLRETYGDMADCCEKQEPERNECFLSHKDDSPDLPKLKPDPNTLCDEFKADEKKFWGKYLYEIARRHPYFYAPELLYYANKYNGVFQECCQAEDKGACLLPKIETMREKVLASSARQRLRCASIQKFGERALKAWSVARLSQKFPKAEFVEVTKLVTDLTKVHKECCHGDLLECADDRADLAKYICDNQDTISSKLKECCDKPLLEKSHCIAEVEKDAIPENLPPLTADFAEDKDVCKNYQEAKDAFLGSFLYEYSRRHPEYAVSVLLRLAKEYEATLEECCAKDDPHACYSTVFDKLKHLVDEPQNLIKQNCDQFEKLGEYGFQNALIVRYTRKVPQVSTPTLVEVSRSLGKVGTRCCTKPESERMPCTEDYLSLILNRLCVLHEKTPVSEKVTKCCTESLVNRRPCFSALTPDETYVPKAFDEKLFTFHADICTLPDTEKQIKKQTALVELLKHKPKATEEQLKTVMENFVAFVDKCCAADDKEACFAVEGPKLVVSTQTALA
Experimental: (§1) The binding activity of the thus obtained biotinylated synthetic peptides to human IgG was assayed by an ELISA assay. […] Specifically, wells coated with human IgG (100 ng/50 μl/well) were blocked by the addition of 0.5% BSA. A biotinylated synthetic peptide and alkaline phosphatase-labeled streptavidin (SA-AP) were mixed in advance at a molar ratio of 4:1 and then the mixture was added to the well, followed by 1 hour of reaction. Para-nitrophenyl phosphate (Wako) was used for color development. Detection was carried out by measuring absorbance at 405 nm. As a positive control of human IgG, the Fc fragment of hIgG was used. As other control proteins, human IgA and IgE, mouse IgG, IgA, and IgE, hTF, fetal bovine serum (FBS), HSA, BSA, and gelatin were used.

[2] = biological target: T2, human transferrin (human, UniProt P02787 20-698); assay: as above
T2 construct: Control protein; also called hTF; ThF
T2 sequence (P02787 20-698 limits assumed): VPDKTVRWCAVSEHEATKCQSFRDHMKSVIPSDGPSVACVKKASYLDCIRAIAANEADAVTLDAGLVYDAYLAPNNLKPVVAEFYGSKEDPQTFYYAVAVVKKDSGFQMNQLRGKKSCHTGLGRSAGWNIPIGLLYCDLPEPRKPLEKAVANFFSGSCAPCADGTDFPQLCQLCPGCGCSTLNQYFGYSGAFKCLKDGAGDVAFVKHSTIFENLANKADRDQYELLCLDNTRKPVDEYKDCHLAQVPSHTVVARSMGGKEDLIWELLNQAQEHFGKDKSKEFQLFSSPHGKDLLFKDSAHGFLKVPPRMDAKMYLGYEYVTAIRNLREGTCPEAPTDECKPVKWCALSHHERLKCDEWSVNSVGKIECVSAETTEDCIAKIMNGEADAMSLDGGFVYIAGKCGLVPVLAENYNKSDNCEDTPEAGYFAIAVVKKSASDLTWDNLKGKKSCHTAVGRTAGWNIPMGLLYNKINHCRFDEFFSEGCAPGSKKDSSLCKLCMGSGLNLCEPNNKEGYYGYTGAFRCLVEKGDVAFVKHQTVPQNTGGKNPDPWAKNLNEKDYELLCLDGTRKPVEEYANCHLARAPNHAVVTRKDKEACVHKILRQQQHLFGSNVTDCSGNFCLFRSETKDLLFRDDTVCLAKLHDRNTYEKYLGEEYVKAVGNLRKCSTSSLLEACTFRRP
Experimental: as §1

[3] = biological target: T3, polyclonal human IgG antibody (serum-derived) (human); assay: SPR (BIAcore2000, 25 C), biotinylated peptide on SA chip, human IgG as analyte (41 to 660 nM)
T3 construct: also called hIgG
Experimental: SPR analysis was carried out using BIAcore2000 (BIAcore) at 25° C. Necessary reagents and sensor chips were purchased from BIAcore and then used. […] The amount of each peptide to be immobilized was adjusted so that the RU (response unit) ranged from 1500 to 2000. […] Binding reaction between human IgG and the peptides was measured. Thereafter, washing with running buffer (HBS-T) was conducted and then dissociation reaction was measured. For washing/elution of bound analytes from the sensor chips, 0.2 M glycine-HCl buffer (pH 2.7) was used. Binding parameters were analyzed using BIA evaluation Version 3.2 software.

[4] = biological target: T4, human serum albumin (human, UniProt P02768 25-609); assay: ELISA on coated protein; biotinylated peptide premixed 4:1 with SA-AP; absorbance
T4 construct: Control protein; also called HSA
Experimental: as §1

[5] = biological target: T5, anti-HER2 human antibody (Herceptin), acid-treated; assay: SPR, peptides on sensor chips, antibody 250 nM; acid treatment pH 2.1, 40 C, 10 min; reference Fc-III peptide
T5 construct: Same antibody as m38 after acid treatment and neutralisation; also called acid-treated anti-HER2 human IgG; acid-denatured anti-HER2 human IgG
Experimental: (§2) For this SPR analysis, human IgG samples were prepared via acid treatment under various conditions as described below and then tested. […] Subsequently, 30 μl (or 20 μl for a sample to which glycine-HCl with pH 2.7 had been added) of 1 M Tris-HCl (pH 8.7) was added to each solution for neutralization.

[6] = biological target: T5, anti-HER2 human antibody (Herceptin), …; assay: SPR, peptides on sensor chips, antibody 250 nM; acid treatment pH 2.7, 20 C, 10 min; reference Fc-III peptide
Experimental: as §2

[7] = biological target: T5, anti-HER2 human antibody (Herceptin), …; assay: SPR, peptides on sensor chips, antibody 250 nM; acid treatment pH 2.1, 20 C, 10 min; reference Fc-III peptide
Experimental: as §2

[8] = biological target: T5, anti-HER2 human antibody (Herceptin), …; assay: SPR, peptides on sensor chips, antibody 250 nM; acid treatment pH 2.7, 30 C, 10 min; reference Fc-III peptide
Experimental: as §2

[9] = biological target: T5, anti-HER2 human antibody (Herceptin), …; assay: SPR, peptides on sensor chips, antibody 250 nM; acid treatment pH 2.7, 40 C, 10 min; reference Fc-III peptide
Experimental: as §2

{Biotin-LC}-GCGYWRSEWGLCG (disulfide 2-12 (inferred), also called biotinylated IMGpep-1) [synthetic peptide IMGpep-1]
binding result [1]: no binding | binding result [2]: no binding | Kd [3]: 17 nM | koff [3]: 0.00034 s⁻¹ | kon [3]: 20000 M⁻¹ s⁻¹

{Biotin-LC}-GCGYWRSQWGLCG (disulfide 2-12 (inferred), also called biotinylated IMGpep-1E6Q) [synthetic peptide IMGpep-1E6Q]
binding result [1]: no binding | binding result [2]: no binding | binding result [4]: no binding | Kd [3]: 21 nM | koff [3]: 0.00031 s⁻¹ | kon [3]: 15000 M⁻¹ s⁻¹

{Biotin-LC}-GCTGYWPKAWGLCG (disulfide 2-13 (inferred), also called biotinylated IMGpep-4) [synthetic peptide IMGpep-4]
binding result [1]: no binding | binding result [2]: no binding | binding result [4]: no binding | Kd [3]: 28 nM | koff [3]: 0.00041 s⁻¹ | kon [3]: 14000 M⁻¹ s⁻¹

GCTGYWPRAWGLCG (disulfide 2-13 (inferred); not fully specified (N-terminus), also called biotinylated IMGpep-4K6R) [synthetic peptide IMGpep-4K6R]
binding result [1]: no binding | binding result [2]: no binding | binding result [4]: no binding | generation rate of acid-denatured IgG (ratio a/b of the SPR response on the IMGpep-4K6R chip to that on the Fc-III chip) [5]: ~40% | generation rate of acid-denatured IgG (ratio a/b of the SPR response on the IMGpep-4K6R chip to that on the Fc-III chip) [6]: ~5% | Kd [3]: 24 nM | generation rate of acid-denatured IgG (ratio a/b of the SPR response on the IMGpep-4K6R chip to that on the Fc-III chip) [7]: 7.8% | generation rate of acid-denatured IgG (ratio a/b of the SPR response on the IMGpep-4K6R chip to that on the Fc-III chip) [8]: 9.7% | generation rate of acid-denatured IgG (ratio a/b of the SPR response on the IMGpep-4K6R chip to that on the Fc-III chip) [9]: 40%

B1: synthetic peptide IMGpep-1CS (peptide)
peptide: {Biotin-LC}-GSGYWRSEWGLSG
notes: Both Cys of IMGpep-1 replaced by Ser; linear control peptide; also called biotinylated IMGpep-1CS
binding result [1]: no binding | binding result [2]: no binding | binding result [4]: no binding
